Consider 1 molecule from paper PMC2847530 (Molecular Biology of the Cell, 2010).

This test concerns the target T1, recombinant hexahistidine-tagged ScSec4 (S. cerevisiae, UniProt P07560 1-215).
T1 sequence: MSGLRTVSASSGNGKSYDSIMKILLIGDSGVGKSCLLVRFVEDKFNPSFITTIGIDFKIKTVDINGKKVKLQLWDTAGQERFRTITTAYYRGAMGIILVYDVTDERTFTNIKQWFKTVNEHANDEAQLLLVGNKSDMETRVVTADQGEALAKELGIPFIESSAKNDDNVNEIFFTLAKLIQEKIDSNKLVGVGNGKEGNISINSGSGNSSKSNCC
As to the kind of experiment: […]) in EDTA binding buffer.

B1: GST-ScSec2^1-160 (domain or fragment)
chain: MDASEEAKRVSIQVTSLSTQLIESVDKQSHLEEQLNKSLKTIASQKAAIENYNQLKEDYNTLKRELSDRDDEVKRLREDIAKENELRTKAEEEADKLNKEVEDLTASLFDEANNMVADARKEKYAIEILNKRLTEQLREKDTLLDTLTLQLKNLKKVMHS
Regarding B1, the binding result was “binds”.
